Laboratory results taken from PMC3373015.

Assays:
Asp38 [1] = target: T1, Asp38 (UniProt position 120, TFRLLDVDTPE); test: NMR; conditions: 298 K; 100 mM KCl, 0.5 mM NaN3 (no buffer stated); folded, no ligand
Asp38 [2] = target: T1, Asp38; test: stability; conditions: folded/unfolded equilibrium, no ligand
Glu142 = Glu142 (UniProt position 224, LNIWSEDNADS); test: NMR
Asp77 = Asp77 (UniProt position 159, IEVEFDKGQRT); test: NMR
Glu10 = Glu10 (UniProt position 92, KKLHKEPATLI); test: NMR
Glu57 = Glu57 (UniProt position 139, EKYGPEASAFT); test: NMR
Glu122 = Glu122 (UniProt position 204, GNNTHEQLLRK); test: NMR
Glu43 [3] = target: Glu43 (UniProt position 125, EVDTPETKHPK); test: NMR; conditions: 298 K; 100 mM KCl, 0.5 mM NaN3 (no buffer stated); folded, no ligand
Glu38 [4] = target: T2, Glu38 (UniProt position 120, TFRLLEVDTPE); test: NMR; conditions: 298 K; 100 mM KCl, 0.5 mM NaN3 (no buffer stated); folded, no ligand
Glu101 = Glu101 (UniProt position 183, GKMVNEALVRQ); test: NMR
Asp40 [5] = target: Asp40 (UniProt position 122, RLLEVDTPETK); test: NMR; conditions: 298 K; 100 mM KCl, 0.5 mM NaN3 (no buffer stated); folded, no ligand
Asp21 = Asp21 (UniProt position 103, KAIDGDTVKLM); test: NMR
Asp19 = Asp19 (UniProt position 101, LIKAIDGDTVK); test: NMR
Glu73 = Glu73 (UniProt position 155, NAKKIEVEFDK); test: NMR
Glu52 = Glu52 (UniProt position 134, PKKFNEKYGPE); test: NMR
Glu75 = Glu75 (UniProt position 157, KKIEVEFDKGQ); test: NMR
Asp143 = Asp143 (UniProt position 225, NIWSEDNADSG); test: NMR
Glu129 = Glu129 (UniProt position 211, LLRKAEAQAKK); test: NMR
Asp83 = Asp83 (UniProt position 165, KGQRTDKYGRG); test: NMR
Asp95 = Asp95 (UniProt position 177, AYIYADGKMVN); test: NMR
Asp146 = Asp146 (UniProt position 228, SEDNADSGQ--); test: NMR
Glu67 = Glu67 (UniProt position 149, TKKMVENAKKI); test: NMR
Glu135 = Glu135 (UniProt position 217, AQAKKEKLNIW); test: NMR
Glu38 [6] = target: T2, Glu38; test: stability; conditions: folded/unfolded equilibrium, no ligand
Glu43 [7] = target: Glu43 (UniProt position 125, KVDTPETKHPK); test: NMR; conditions: 298 K; 100 mM KCl, 0.5 mM NaN3 (no buffer stated); folded, no ligand
Asp40 [8] = target: Asp40 (UniProt position 122, RLLKVDTPETK); test: NMR; conditions: 298 K; 100 mM KCl, 0.5 mM NaN3 (no buffer stated); folded, no ligand
Lys38 = Lys38 (UniProt position 120, TFRLLKVDTPE); test: stability; conditions: cited from earlier work
Asp40 [9] = target: Asp40 (UniProt position 122, RLLLVDTPETK); test: NMR; conditions: folded Δ+PHS nuclease; cited from earlier work
Glu43 [10] = target: Glu43 (UniProt position 125, LVDTPETKHPK); test: NMR; conditions: folded Δ+PHS nuclease; cited from earlier work
His8 = His8 (UniProt position 90, STKKLHKEPAT); conditions: folded Δ+PHS nuclease; cited from earlier work
[11] = 298 K, 100 mM KCl, 0.5 mM NaN3 (no buffer stated), folded, no ligand
[12] = folded Δ+PHS nuclease, cited from earlier work

Substance: Staphylococcal nuclease Δ+PHS/L38D (Staphylococcus aureus; G50F;V51N;P117G;H124L;S128A;del44-49;L38D)
- pKa (Asp38 [1]): 7.2
- pKa (Asp38 [2]): 6.8 +/- 0.3

Substance: Staphylococcal nuclease Δ+PHS/L38D/E122Q (Staphylococcus aureus; G50F;V51N;P117G;H124L;S128A;del44-49;L38D;E122Q)
- pKa (Asp38 [1]): 6.6
- pKa (Asp38 [2]): 6.9 +/- 0.3

Substance: Staphylococcal nuclease Δ+PHS/L38E (Staphylococcus aureus; G50F;V51N;P117G;H124L;S128A;del44-49;L38E)
- pKa (Glu142; [11]): 4.5
- pKa (Asp77; [11]): < 2.5
- pKa (Glu10; [11]): 3.1
- pKa (Glu57; [11]): 3.6
- pKa (Glu122; [11]): 3.8
- pKa (Glu43 [3]): 4.4
- pKa (Glu38 [4]): 7.0
- pKa (Glu101; [11]): 3.9
- pKa (Asp40 [5]): 3.9
- pKa (Asp21; [11]): 6.6
- pKa (Asp19; [11]): < 2.5
- pKa (Glu73; [11]): 3.4
- pKa (Glu52; [11]): 4.0
- pKa (Glu75; [11]): 3.3
- pKa (Asp143; [11]): 3.8
- pKa (Glu129; [11]): 3.9
- pKa (Asp83; [11]): < 2.5
- pKa (Asp95; [11]): 2.3
- pKa (Asp146; [11]): 3.9
- pKa (Glu67; [11]): 3.8
- pKa (Glu135; [11]): 3.8
- pKa (Glu38 [6]): 7.0 +/- 0.3

Substance: Staphylococcal nuclease Δ+PHS/L38E/D77N (Staphylococcus aureus; G50F;V51N;P117G;H124L;S128A;del44-49;L38E;D77N)
- pKa (Glu38 [4]): 6.1

Substance: Staphylococcal nuclease Δ+PHS/L38E/E122D (Staphylococcus aureus; G50F;V51N;P117G;H124L;S128A;del44-49;L38E;E122D)
- pKa (Glu38 [4]): 7.4

Substance: Staphylococcal nuclease Δ+PHS/L38E/E122Q (Staphylococcus aureus; G50F;V51N;P117G;H124L;S128A;del44-49;L38E;E122Q)
- pKa (Glu38 [4]): 6.2

Substance: Staphylococcal nuclease Δ+PHS/L38E/R126Q (Staphylococcus aureus; G50F;V51N;P117G;H124L;S128A;del44-49;L38E;R126Q)
- pKa (Glu38 [4]): 7.2

Substance: Staphylococcal nuclease Δ+PHS/L38K (Staphylococcus aureus; G50F;V51N;P117G;H124L;S128A;del44-49;L38K)
- pKa (Glu142; [11]): 4.6
- pKa (Glu43 [7]): 4.5
- pKa (Glu10; [11]): 3.1
- pKa (Glu57; [11]): 3.6
- pKa (Glu122; [11]): 3.9
- pKa (Glu101; [11]): 3.9
- pKa (Asp40 [8]): 3.8
- pKa (Asp21; [11]): 6.5
- pKa (Asp19; [11]): < 2.5
- pKa (Glu73; [11]): 3.3
- pKa (Glu52; [11]): 4.1
- pKa (Asp143; [11]): 4.0
- pKa (Glu129; [11]): 3.8
- pKa (Asp83; [11]): < 2.5
- pKa (Asp95; [11]): 2.1
- pKa (Asp146; [11]): 4.0
- pKa (Glu67; [11]): 3.9
- pKa (Glu135; [11]): 3.9
- pKa (Lys38): ≥ 10.4

Substance: Staphylococcal nuclease, Δ+PHS variant (Staphylococcus aureus; G50F;V51N;P117G;H124L;S128A;del44-49)
- pKa (Glu142; [12]): 4.5
- pKa (Asp77; [12]): < 2.5
- pKa (Asp40 [9]): 3.9
- pKa (Glu43 [10]): 4.3
- pKa (Glu10; [12]): 2.8
- pKa (Glu57; [12]): 3.5
- pKa (Glu122; [12]): 3.9
- pKa (Glu101; [12]): 3.8
- pKa (Asp21; [12]): 6.5
- pKa (Asp19; [12]): 2.2
- pKa (Glu73; [12]): 3.3
- pKa (Glu52; [12]): 3.9
- pKa (Glu75; [12]): 3.3
- pKa (Asp143; [12]): 3.8
- pKa (Glu129; [12]): 3.8
- pKa (Asp83; [12]): < 2.5
- pKa (Asp95; [12]): 2.2
- pKa (Asp146; [12]): 3.9
- pKa (Glu67; [12]): 3.8
- pKa (Glu135; [12]): 3.8
- pKa (His8): 6.5
